Data published in PMC6503924.

Molecular target: Todarodes pacificus hemocyanin (Todarodes pacificus)
Experiment: cryo-EM structure; single-particle cryo-EM of purified hemocyanin, 2.9 mg/ml, 100 mM HEPES pH 7.5, 200 mM CaCl2; asymmetric refinement (no symmetry imposed), overall 5.1 Å; model by rigid-body fitting

- stoichiometry N: 10
Substance: Todarodes pacificus hemocyanin (natural protein)
